This note sets out measurements from patent US20100233173A1 (AstraZeneca / MedImmune, published 2010).

For this assay, the target named is T1, EphA2 (human, UniProt P29317 25-534, limits assumed).
T1 construct: also called biotinylated EphA2; soluble EphA2 antigen
Description: BIAcore, ovalbumin immobilised, antigens injected one after the other. How it is done:
FIG. 36. […] The upper curve represents the binding activity of three distinct epitope binding domains present on multispecific epitope binding protein “P1” represented in FIG. […]. Soluble EB, EA, and EphA2 antigens were added to immobilized P1 and the relative binding was measured. The three distinct inflections referenced by the arrows corresponding to the three antigens indicates binding to the immobilized P1. Ovalbumin (bottom curve) was used as a negative control.
Methods: Triple-specific binding ability of P1 (FIG. 3D) was assessed by BIAcore by injecting the three antigens EB, EA and EphA2 sequentially over a P1-coated chip. When the P1 epitope had been saturated with the first antigen (EB), the second antigen (EA) was injected, followed by the injection of the third antigen (EphA2). Ovalbumin was used as a negative binding control.

T1 sequence (P29317 25-534 limits assumed): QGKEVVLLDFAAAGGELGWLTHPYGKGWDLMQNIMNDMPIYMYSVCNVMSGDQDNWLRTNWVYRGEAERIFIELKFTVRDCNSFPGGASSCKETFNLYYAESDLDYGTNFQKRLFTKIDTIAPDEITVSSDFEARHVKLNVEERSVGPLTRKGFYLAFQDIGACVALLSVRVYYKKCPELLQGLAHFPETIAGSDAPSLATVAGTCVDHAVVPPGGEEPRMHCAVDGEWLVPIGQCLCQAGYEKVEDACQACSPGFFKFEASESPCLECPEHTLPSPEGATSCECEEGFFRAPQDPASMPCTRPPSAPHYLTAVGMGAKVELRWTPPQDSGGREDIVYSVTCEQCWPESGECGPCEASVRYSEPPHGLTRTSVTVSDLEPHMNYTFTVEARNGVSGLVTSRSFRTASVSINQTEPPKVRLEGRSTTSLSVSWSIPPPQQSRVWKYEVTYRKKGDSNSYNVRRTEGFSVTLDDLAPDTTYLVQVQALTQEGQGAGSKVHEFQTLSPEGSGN

B1: Ovalbumin (other, UniProt P01012 2-386, looked up)
chain: GSIGAASMEFCFDVFKELKVHHANENIFYCPIAIMSALAMVYLGAKDSTRTQINKVVRFDKLPGFGDSIEAQCGTSVNVHSSLRDILNQITKPNDVYSFSLASRLYAEERYPILPEYLQCVKELYRGGLEPINFQTAADQARELINSWVESQTNGIIRNVLQPSSVDSQTAMVLVNAIVFKGLWEKAFKDEDTQAMPFRVTEQESKPVQMMYQIGLFRVASMASEKMKILELPFASGTMSMLVLLPDEVSGLEQLESIINFEKLTEWTSSNVMEERKIKVYLPRMKMEEKYNLTSVLMAMGITDVFSSSANLSGISSAESLKISQAVHAAHAEINEAGREVVGSAEAGVDAASVSEEFRADHPFLFCIKHIATNAVLFFGRCVSP
notes: also called immobilized ovalbumin
As for B1, the binding result is “no binding”.
